Data: publication PMC3591345, “A Novel Single-Strand Specific 3′–5′ Exonuclease Found in the Hyperthermophilic Archaeon, Pyrococcus furiosus”
Values belong to the molecule of their own block, whether it stands above or below them.

How the values were obtained:
[1] = target: PfuExo I (recombinant protein encoded by PF2046) (Pyrococcus furiosus) (UniProt Q8TZE9); assay: SEC; analytical gel filtration, SMART system, Superdex 200 3.2/30; 20 µM PfuExo I; 50 mM Tris-HCl pH 8.0, 0.5 mM DTT, 0.1 mM EDTA, 10% glycerol, 0.15 M NaCl; mass estimated against marker proteins
PfuExo I = target: T1, PfuExo I (Pyrococcus furiosus, UniProt Q8TZE9 1-229); assay: EMSA; no Mg2+, 0.1 mM EDTA; 1-1000 nM protein; 0.1% glutaraldehyde fixation; one shifted band; 20 mM triethanolamine (pH not stated), 50 mM NaCl, 0.1 mg/ml BSA, 0.1 mM EDTA, 2.5 nM DNA, 20 min at 37 C, then 0.1% glutaraldehyde; 4.5% native PAGE; details: protein: recombinant, chain copies: 3, label: 32P (5')
T1 sequence: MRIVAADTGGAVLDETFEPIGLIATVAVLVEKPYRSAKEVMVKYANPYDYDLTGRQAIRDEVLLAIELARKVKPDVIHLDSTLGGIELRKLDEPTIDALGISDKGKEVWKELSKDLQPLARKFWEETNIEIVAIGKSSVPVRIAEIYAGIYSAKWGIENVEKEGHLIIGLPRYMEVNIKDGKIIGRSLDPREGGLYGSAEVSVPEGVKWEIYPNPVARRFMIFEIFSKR

stoichiometry N [1]: 3
Molecule: PfuExo I (recombinant protein encoded by PF2046) (from UniProt Q8TZE9 1-229) (enzyme)

B1: 5'-overhang DNA d49F/d27 (dsDNA)
DNA 1: AGCTACCATGCCTGCACGAATTAAGCAATTCGTAATCATGGTCATAGCT
DNA 2: AGCTATGACCATGATTACGAATTGCTT
binding result (PfuExo I; 5' overhang 22 nt): binds

B2: 3'-overhang DNA d49F/d22 (dsDNA)
DNA 1: AGCTACCATGCCTGCACGAATTAAGCAATTCGTAATCATGGTCATAGCT
DNA 2: AATTCGTGCAGGCATGGTAGCT
binding result (PfuExo I; 3' overhang 27 nt): binds
